Test results from IntAct's records for PubMed 31515488.

B1: Zyxin (Homo sapiens), Q15942 (parent)
chain: MAAPRPSPAISVSVSAPAFYAPQKKFGPVVAPKPKVNPFRPGDSEPPPAPGAQRAQMGRVGEIPPPPPEDFPLPPPPLAGDGDDAEGALGGAFPPPPPPIEESFPPAPLEEEIFPSPPPPPEEEGGPEAPIPPPPQPREKVSSIDLEIDSLSSLLDDMTKNDPFKARVSSGYVPPPVATPFSSKSSTKPAAGGTAPLPPWKSPSSSQPLPQVPAPAQSQTQFHVQPQPQPKPQVQLHVQSQTQPVSLANTQPRGPPASSPAPAPKFSPVTPKFTPVASKFSPGAPGGSGSQPNQKLGHPEALSAGTGSPQPPSFTYAQQREKPRVQEKQHPVPPPAQNQNQVRSPGAPGPLTLKEVEELEQLTQQLMQDMEHPQRQNVAVNELCGRCHQPLARAQPAVRALGQLFHIACFTCHQCAQQLQGQQFYSLEGAPYCEGCYTDTLEKCNTCGEPITDRMLRATGKAYHPHCFTCVVCARPLEGTSFIVDQANRPHCVPDYHKQYAPRCSVCSEPIMPEPGRDETVRVVALDKNFHMKCYKCEDCGKPLSIEADDNGCFPLDGHVLCRKCHTARAQT
B2: TBC1 domain family member 7 (Homo sapiens), Q9P0N9 (parent)
chain: MTEDSQRNFRSVYYEKVGFRGVEEKKSLEILLKDDRLDTEKLCTFSQRFPLPSMYRALVWKVLLGILPPHHESHAKVMMYRKEQYLDVLHALKVVRFVSDATPQAEVYLRMYQLESGKLPRSPSFPLEPDDEVFLAIAKAMEEMVEDSVDCYWITRRFVNQLNTKYRDSLPQLPKAFEQYLNLEDGRLLTHLRMCSAAPKLPYDLWFKRCFAGCLPESSLQRVWDKVVSGSCKILVFVAVEILLTFKIKVMALNSAEKITKFLENIPQDSSDAIVSKAIDLWHKHCGTPVHSS
partner: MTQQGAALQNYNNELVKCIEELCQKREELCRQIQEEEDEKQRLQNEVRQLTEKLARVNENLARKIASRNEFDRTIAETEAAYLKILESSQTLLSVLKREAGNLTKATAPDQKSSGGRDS
B3: Protein LRATD2 (Homo sapiens), Q96KN1 (parent)
chain: MGNQVEKLTHLSYKEVPTADPTGVDRDDGPRIGVSYIFSNDDEDVEPQPPPQGPDGGGLPDGGDGPPPPQPQPYDPRLHEVECSVFYRDECIYQKSFAPGSAALSTYTPENLLNKCKPGDLVEFVSQAQYPHWAVYVGNFQVVHLHRLEVINSFLTDASQGRRGRVVNDLYRYKPLSSSAVVRNALAHVGAKERELSWRNSESFAAWCRYGKREFKIGGELRIGKQPYRLQIQLSAQRSHTLEFQSLEDLIMEKRRNDQIGRAAVLQELATHLHPAEPEEGDSNVARTTPPPGRPPAPSSEEEDGEAVAH
partner: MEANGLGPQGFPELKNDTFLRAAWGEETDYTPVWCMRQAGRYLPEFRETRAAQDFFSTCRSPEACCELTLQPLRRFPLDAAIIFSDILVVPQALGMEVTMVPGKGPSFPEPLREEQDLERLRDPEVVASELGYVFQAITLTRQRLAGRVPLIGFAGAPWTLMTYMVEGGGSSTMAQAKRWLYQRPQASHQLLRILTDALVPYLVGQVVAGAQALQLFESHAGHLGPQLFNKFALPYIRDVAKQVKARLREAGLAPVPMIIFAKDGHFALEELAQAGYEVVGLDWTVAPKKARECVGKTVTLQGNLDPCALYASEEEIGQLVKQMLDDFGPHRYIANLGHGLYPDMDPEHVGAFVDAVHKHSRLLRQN
B4: Actin filament-associated protein 1-like 1 (Homo sapiens), Q8TED9 (parent)
chain: MDRGQVLEQLLPELTGLLSLLDHEYLSDTTLEKKMAVASILQSLQPLPAKEVSYLYVNTADLHSGPSFVESLFEEFDCDLSDLRDMPEDDGEPSKGASPELAKSPRLRNAADLPPPLPNKPPPEDYYEEALPLGPGKSPEYISSHNGCSPSHSIVDGYYEDADSSYPATRVNGELKSSYNDSDAMSSSYESYDEEEEEGKSPQPRHQWPSEEASMHLVRECRICAFLLRKKRFGQWAKQLTVIREDQLLCYKSSKDRQPHLRLALDTCSIIYVPKDSRHKRHELRFTQGATEVLVLALQSREQAEEWLKVIREVSKPVGGAEGVEVPRSPVLLCKLDLDKRLSQEKQTSDSDSVGVGDNCSTLGRRETCDHGKGKKSSLAELKGSMSRAAGRKITRIIGFSKKKTLADDLQTSSTEEEVPCCGYLNVLVNQGWKERWCRLKCNTLYFHKDHMDLRTHVNAIALQGCEVAPGFGPRHPFAFRILRNRQEVAILEASCSEDMGRWLGLLLVEMGSRVTPEALHYDYVDVETLTSIVSAGRNSFLYARSCQNQWPEPRVYDDVPYEKMQDEEPERPTGAQVKRHASSCSEKSHRVDPQVKVKRHASSANQYKYGKNRAEEDARRYLVEKEKLEKEKETIRTELIALRQEKRELKEAIRSSPGAKLKALEEAVATLEAQCRAKEERRIDLELKLVAVKERLQQSLAGGPALGLSVSSKPKSGETANKPQNSVPEQPLPVNCVSELRKRSPSIVASNQGRVLQKAKEWEMKKT
partner: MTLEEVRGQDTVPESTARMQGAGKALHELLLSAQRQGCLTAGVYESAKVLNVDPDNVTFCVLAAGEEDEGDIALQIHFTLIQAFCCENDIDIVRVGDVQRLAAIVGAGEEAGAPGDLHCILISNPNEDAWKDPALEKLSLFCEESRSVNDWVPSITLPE

Variants of: B1
Conditions: with pf21a_human PHF21A

Variant | effect of a mutation on the interaction
R489W | with no effect
R563Q | with no effect

Variants of: B2
Conditions: with ssna1_human SSNA1, O43805

Variant | effect of a mutation on the interaction
L67W | disrupting interaction strength

Variants of: B3
Conditions: with dcup_human UROD

Variant | effect of a mutation on the interaction
P71T | with no effect

Variants of: B4
Conditions: with ga45g_human GADD45G

Variant | effect of a mutation on the interaction
S98N | with no effect
